Measured values published in paper PMC4019986, “Structural and biochemical characterization of the KLHL3–WNK kinase interaction important in blood pressure regulation” (Biochemical Journal, 2014).
“And” between values parts separate entries of the source, which are not always exact repeats. Identical values can stand only once. Like-named read-outs stand apart in the source and are kept apart here. Ends that are not written are not given here. Peptide text beside a SMILES is read from it. * marks the point of attachment. X1 = N[C@H]1CS[As]2SC[C@H](NC1=O)C(=O)N1CCC[C@H]1C(=O)NCC(=O)N[C@H]1CS[As](SC[C@@H](C(=O)*)NC1=O)c1c(O)ccc3c1Oc1c(ccc(O)c12)C31OC(=O)c2ccccc21

Assays:
[1] = molecular target: core 11-residue WNK4 peptide (WNK4 WT 557–567), Lumio-Green-labelled; experiment: fluorescence polarisation; Kelch protein titrated against 10 nM Lumio-Green-labelled peptide; 25°C; 50 mM Tris/HCl pH 7.5, 150 mM NaCl, 2 mM DTT; one-site specific binding with Hill slope; duplicates, at least 12 points per curve
GST–KLHL3^290–587 [2] = molecular target: T1, GST–KLHL3^290–587 (Homo sapiens, UniProt Q9UH77); experiment: Fluorescence polarization binding of Lumio-Green-labelled degron peptides to the KLHL3 Kelch domain
T1 construct: the isolated C-terminal Kelch domain (residues 290–587); made in house; host or cells: E. coli BL21
T1 sequence (Q9UH77 290-587): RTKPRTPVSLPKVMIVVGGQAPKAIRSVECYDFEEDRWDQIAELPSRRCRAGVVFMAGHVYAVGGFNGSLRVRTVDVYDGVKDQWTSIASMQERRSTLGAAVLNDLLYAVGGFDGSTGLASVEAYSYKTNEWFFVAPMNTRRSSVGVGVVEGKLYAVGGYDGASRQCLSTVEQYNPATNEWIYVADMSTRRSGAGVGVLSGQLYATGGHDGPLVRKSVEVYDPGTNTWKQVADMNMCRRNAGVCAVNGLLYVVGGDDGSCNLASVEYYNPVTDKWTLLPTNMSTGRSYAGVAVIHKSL

[3] = molecular target: T2, human KLHL2 Kelch domain (residues 294–593) (human, UniProt O95198 294-593); experiment: crystal structure; KLHL2 Kelch domain (9 mg/ml) with 2 mM WNK4 11-mer peptide; sitting drop, 20°C, 0.1 M Hepes pH 7.2, 2.5 M ammonium sulfate, 2% PEG 400; settings: both partners purified
T2 construct: KLHL2, human, IMAGE clone 4791972, Kelch domain, residues 294-593; Vector pNIC28-Bsa4 (GenBank EF198106); The results speak of unmodelled residues 292–305, which lie partly before the stated limit; also called KLHL2 (crystallization construct); Mayven; source: E. coli BL21(DE3)-R3-pRARE, purified (Ni-Sepharose, rTEV cleavage, HiTrap SP, Superdex 200); not shown: His6, N-terminal, cleaved
T2 sequence (looked up): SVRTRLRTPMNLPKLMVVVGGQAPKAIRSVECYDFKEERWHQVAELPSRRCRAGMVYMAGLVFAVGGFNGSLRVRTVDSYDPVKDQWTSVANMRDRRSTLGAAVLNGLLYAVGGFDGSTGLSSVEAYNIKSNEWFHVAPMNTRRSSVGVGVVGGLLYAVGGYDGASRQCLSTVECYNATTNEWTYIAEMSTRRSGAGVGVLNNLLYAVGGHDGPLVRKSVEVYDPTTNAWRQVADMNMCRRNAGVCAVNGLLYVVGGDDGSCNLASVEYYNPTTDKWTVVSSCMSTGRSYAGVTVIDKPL

[4] = molecular target: T3, human KLHL3 Kelch domain (residues 298–587) (human, UniProt Q9UH77-1 298-587); experiment: crystal structure; KLHL3 Kelch domain (9 mg/ml) with 2 mM WNK4 11-mer peptide; sitting drop, 0.1 M acetate pH 4.3, 0.2 M ammonium sulfate, 25–35% PEG 4000; settings: both partners purified
T3 construct: KLHL3, human, NM_017415.2, Kelch domain, residues 298-587; Vector pNIC28-Bsa4 (GenBank EF198106); The results speak of unmodelled residues 296–299, which lie partly before the stated limit; also called KLHL3 (crystallization construct); source: E. coli BL21(DE3)-R3-pRARE, purified (Ni-Sepharose, rTEV cleavage, HiTrap Q, Superdex 200); not shown: His6, N-terminal, cleaved
T3 sequence (looked up): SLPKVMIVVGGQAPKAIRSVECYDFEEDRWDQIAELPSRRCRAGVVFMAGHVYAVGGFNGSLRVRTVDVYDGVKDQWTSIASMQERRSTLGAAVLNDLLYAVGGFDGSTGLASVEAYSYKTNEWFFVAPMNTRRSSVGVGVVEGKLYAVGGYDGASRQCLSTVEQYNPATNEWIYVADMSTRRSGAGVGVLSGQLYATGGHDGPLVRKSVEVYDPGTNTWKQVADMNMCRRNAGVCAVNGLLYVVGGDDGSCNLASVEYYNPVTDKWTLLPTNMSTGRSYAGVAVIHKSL

[5] = molecular target: T4, KEAP1 full-length protein (residues 1–624) (UniProt Q14145 1-624); experiment: fluorescence polarisation; Kelch protein titrated against 10 nM Lumio-Green-labelled peptide; 25°C; 50 mM Tris/HCl pH 7.5, 150 mM NaCl, 2 mM DTT; one-site specific binding with Hill slope; duplicates, at least 12 points per curve; settings: both partners purified
T4 construct: KEAP1, NM_203500.1, amplified from EST IMAGE 3163902, residues 1-624; NM_203500.1 is a human transcript as far as I recall; also called Kelch-like enoyl-CoA hydratase-associated protein 1; source: Sf21 cells, purified (ampicillin–Sepharose, TEV protease release, size-exclusion chromatography); not shown: DAC, N-terminal, cleaved

GST–KLHL3^290–587 [6] = molecular target: T5, GST–KLHL3^290–587 (human, UniProt Q9UH77-1 290-587); experiment: as above; settings: both partners purified
T5 construct: KLHL3, human, NM_017415.2, C-terminal Kelch domain, residues 290-587; pGEX6P-1, PreScission site between GST and KLHL3; eluted with glutathione as the GST fusion; also called isolated KLHL3 Kelch domain; GST-KLHL3 290-587 wild-type; source: E. coli BL21, purified (glutathione–Sepharose); not shown: GST, N-terminal, kept
T5 sequence (looked up): T1 sequence (Q9UH77 290-587)

[7] = disease-causing mutation within the WNK4 degron peptide, Figure 1C

T4 sequence (Q14145 whole entry, the tested form may be a part): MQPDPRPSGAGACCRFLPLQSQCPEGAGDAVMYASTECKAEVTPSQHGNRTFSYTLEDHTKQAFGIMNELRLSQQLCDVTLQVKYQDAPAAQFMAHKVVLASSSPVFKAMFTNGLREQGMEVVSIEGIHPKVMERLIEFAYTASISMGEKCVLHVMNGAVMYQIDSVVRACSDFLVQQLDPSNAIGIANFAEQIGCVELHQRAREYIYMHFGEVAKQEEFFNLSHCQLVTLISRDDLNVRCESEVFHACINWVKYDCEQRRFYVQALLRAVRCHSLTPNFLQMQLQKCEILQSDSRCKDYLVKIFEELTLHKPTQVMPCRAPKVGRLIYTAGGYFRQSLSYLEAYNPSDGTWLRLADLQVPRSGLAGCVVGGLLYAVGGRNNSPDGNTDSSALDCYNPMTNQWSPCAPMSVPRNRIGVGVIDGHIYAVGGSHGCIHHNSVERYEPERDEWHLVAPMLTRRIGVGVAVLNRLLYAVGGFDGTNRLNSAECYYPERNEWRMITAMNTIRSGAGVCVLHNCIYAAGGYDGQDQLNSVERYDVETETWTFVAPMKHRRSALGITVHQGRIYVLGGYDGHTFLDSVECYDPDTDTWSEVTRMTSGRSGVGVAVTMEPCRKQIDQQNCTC

Question: How did the Kd [1] turn out when “GST–KLHL2^298–593 (from UniProt O95198 298-593) (domain or fragment)” was run?
Answer: 260 nM

Question: “WNK4 E562K 549–567: 19-residue WNK4 degron peptide with Gordon's syndrome mutation E562K, Lumio Green labelled (GPPSVFPPEPEEPKADQHQ; not fully specified (N-terminus); also: Lumio Green fluorophore on N-terminal linker CCPGCCGGGG)” was tested. Which “binding to KLHL3 in words” value (GST–KLHL3^290–587 [2]; [7]) did it give?
Answer: virtually abolished binding

Question: Which “reduction in binding relative to wild-type WNK4 degron peptide” value (GST–KLHL3^290–587 [2]; [7]) does the source give for “WNK4 D564A 549–567: 19-residue WNK4 degron peptide with Gordon's syndrome mutation D564A, Lumio Green labelled (GPPSVFPPEPEEPEAAQHQ; not fully specified (N-terminus); also: Lumio Green fluorophore on N-terminal linker CCPGCCGGGG)” here?
Answer: 10 fold

Question: How did the “reduction in binding relative to wild-type WNK4 degron peptide” value (GST–KLHL3^290–587 [2]) turn out when `CC(C)[C@H](NC(=O)[C@H](CO)NC(=O)[C@@H]1CCCN1C(=O)[C@@H]1CCCN1C(=O)CNC(=O)CNC(=O)CNC(=O)CNC(=O)CNC(=O)[C@@H]1CS[As]2SC[C@H](NC(=O)CNC(=O)[C@@H]3CCCN3C(=O)[C@@H]3CS[As](SC[C@H](N)C(=O)N3)c3c(O)ccc4c3Oc3c(ccc(O)c32)C42OC(=O)c3ccccc32)C(=O)N1)C(=O)N[C@@H](Cc1ccccc1)C(=O)N1CCC[C@H]1C(=O)N1CCC[C@H]1C(=O)N[C@@H](CCC(=O)O)C(=O)N1CCC[C@H]1C(=O)N[C@@H](CCC(=O)O)C(=O)N[C@@H](CCC(=O)O)C(=O)N1CCC[C@H]1C(=O)N[C@@H](CCC(=O)O)C(=O)N[C@@H](C)C(=O)N[C@@H](CC(=O)O)C(=O)N[C@@H](CCC(=O)O)C(=O)N[C@@H](Cc1cnc[nH]1)C(=O)N[C@@H](CCC(N)=O)C(=O)O` (stereo partly shown) [WNK4 Q565E 549–567] (X1-GGGGGPPSVFPPEPEEPEADEHQ-OH; N-terminus and C-terminus assumed) was run?
Answer: 10 fold

B1: 11-residue WNK4 peptide (EPEEPEADQHQ) used for crystallization (peptide)
peptide: EPEEPEADQHQ
notes: WNK4 acidic degron, residues 557-567; the sentence 'All peptides contained an N-terminal linker' stands in the fluorescence polarization methods; also called WNK4 11-mer peptide; 11-residue WNK4 degron motif; source: synthetic peptide (GL Biochem)
Question: Does B1 bind [3]?
Answer: binds

Question: Does B1 bind [4]?
Answer: binds

B2: WNK3 degron peptide (WNK3 WT 537–547) (peptide)
peptide: ECEETEVDQHV
modifications: not fully specified (N-terminus); also: Lumio Green fluorophore on N-terminal linker CCPGCCGGGG
notes: also called WNK3 motif; source: synthetic peptide (GL Biochem)
Question: Which Kd [5] does the source give for B2 here?
Answer: > 50000 nM

Question: What about the Kd (GST–KLHL3^290–587 [6]) of the same molecule?
Answer: 840 nM

B3: NRF2 degron peptide (NRF2 WT 74–84) (peptide)
peptide: CCPGCCGGGGLQLDEETGEFL
modifications: cysteine pairing not given here; also: Lumio Green fluorophore on N-terminal linker CCPGCCGGGG
notes: nuclear factor-erythroid 2-related factor 2 (NRF2), degron motif, residues 74-84; also called NRF2 degron motif; source: synthetic peptide (GL Biochem)
Question: Which Kd (GST–KLHL3^290–587 [6]) does the source give for B3 here?
Answer: > 50000 nM

B4: WNK4 WT 554–564 peptide (peptide)
peptide: FPPEPEEPEAD
modifications: not fully specified (N-terminus); also: Lumio Green fluorophore on N-terminal linker CCPGCCGGGG
notes: WNK4 acidic degron, residues 554-564; source: synthetic peptide (GL Biochem)
Question: Which Kd (GST–KLHL3^290–587 [6]) does the source give for B4 here?
Answer: > 50000 nM

B5: WNK4 WT 556–567 peptide (peptide)
peptide: PEPEEPEADQHQ
modifications: not fully specified (N-terminus); also: Lumio Green fluorophore on N-terminal linker CCPGCCGGGG
notes: WNK4 acidic degron, residues 556-567; source: synthetic peptide (GL Biochem)
Question: Which Kd (GST–KLHL3^290–587 [6]) does the source give for B5 here?
Answer: 290 nM

B6: WNK4 E562K 549–567 peptide (peptide)
peptide: GPPSVFPPEPEEPKADQHQ
modifications: not fully specified (N-terminus); also: Lumio Green fluorophore on N-terminal linker CCPGCCGGGG
notes: source: synthetic peptide (GL Biochem)
Question: B6 was tested. Which Kd (GST–KLHL3^290–587 [6]) did it give?
Answer: > 50000 nM

B7: WNK4 WT 554–566 peptide (peptide)
peptide: FPPEPEEPEADQH
modifications: not fully specified (N-terminus); also: Lumio Green fluorophore on N-terminal linker CCPGCCGGGG
notes: WNK4 acidic degron, residues 554-566; source: synthetic peptide (GL Biochem)
Question: Which Kd (GST–KLHL3^290–587 [6]) does the source give for B7 here?
Answer: 7810 nM

B8: WNK4 Q565E 549–567 peptide (peptide)
peptide: GPPSVFPPEPEEPEADEHQ
modifications: not fully specified (N-terminus); also: Lumio Green fluorophore on N-terminal linker CCPGCCGGGG
notes: as for B6
Question: B8 was tested. Which Kd (GST–KLHL3^290–587 [6]) did it give?
Answer: 6210 nM

B9: WNK4 WT 555–567 peptide (peptide)
peptide: PPEPEEPEADQHQ
modifications: not fully specified (N-terminus); also: Lumio Green fluorophore on N-terminal linker CCPGCCGGGG
notes: WNK4 acidic degron, residues 555-567; source: synthetic peptide (GL Biochem)
Question: How did the Kd (GST–KLHL3^290–587 [6]) turn out when B9 was run?
Answer: 910 nM

B10: WNK4 D564A 549–567 peptide (peptide)
peptide: GPPSVFPPEPEEPEAAQHQ
modifications: not fully specified (N-terminus); also: Lumio Green fluorophore on N-terminal linker CCPGCCGGGG
notes: as for B6
Question: How did the Kd (GST–KLHL3^290–587 [6]) turn out when B10 was run?
Answer: > 50000 nM

B11: WNK4 WT 554–567 peptide (peptide)
peptide: FPPEPEEPEADQHQ
modifications: not fully specified (N-terminus); also: Lumio Green fluorophore on N-terminal linker CCPGCCGGGG
notes: WNK4 acidic degron, residues 554-567; source: synthetic peptide (GL Biochem)
Question: For B11, which Kd (GST–KLHL3^290–587 [6]) is on record?
Answer: 710 nM

B12: core 11-residue WNK4 peptide (WNK4 WT 557–567), Lumio-Green-labelled (peptide)
peptide: EPEEPEADQHQ
modifications: not fully specified (N-terminus); also: Lumio Green fluorophore on N-terminal linker CCPGCCGGGG
notes: WNK4 acidic degron, residues 557-567; also called WNK1/4 degron; 11-residue WNK4 (557–567) degron peptide; source: synthetic peptide (GL Biochem)
Question: B12 was tested. Which Kd [5] did it give?
Answer: > 50000 nM

Question: And the Kd (GST–KLHL3^290–587 [6])?
Answer: 690 nM and 350 nM and 510 nM
